B1: PRO3891 (scFv)
scFv: DIQMTQSPSSLSASVGDRVTITCQASQSINDYLAWYQQKPGKAPKLLIYKGGTLASGVPSRFSGSGSGTDFTLTISSLQPEDFATYYCQQGYIITDIDNVFGTGTKVTVLGGGGGSGGGGSGGGGSGGGGSQVQLQESGPGLVKPSETLSLTCKASGFSFSSGYDMCWVRQPPGKGLEWIACVVAGSVDITYYASWAKGRVTISKDSSKNQVSLKLSSVTAADSAVYYCARKDAYSDAFNLWGQGTLVKVSS
notes: anti-PDL1 scFv
B2: PRO4245 (scFv)
scFv: DIQMTQSPSSLSASVGDRVTITCQASQSIGTYLAWYQQKPGKPPKLLIYRGGILASGVPSRFSGSGSGTDFTLTISSLQPEDFATYYCQSNFYSDSTTIGPNAFGTGTKVTVLGGGGGSGGGGSGGGGSGGGGSQQLVESGGGLVQPGGSLRLSCAASGFSFNSDYWIYWVRQAPGKGLEWIASIYGGSSGNTQYASWAQGRFTISKDNSKNTVYLQMNSLRAEDSAVYFCARGYVDYGGATDLWGQGTLVKVSS
notes: anti-PDL1 scFv
B3: PRO5056 (antibody, human IgG1, kappa)
chain: DVQMTQSPSSLSASVGDRVTITCQASQSISSWVSWYQQKPGKPPKLLIYRGGYLESGVPSRFSASGSGTDFTLTISSLQPEDFATYYCQSTDSSTYGGAFGCGTKVTVLGGGGGSGGGGSGGGGSGGGGSQQVVESGGGLVQPGGSLRLSCAVSGIDLNSYAMTWVRQAPGKCLEWIGYIGSASSTYYASWASGRFTISKDNSKNTVYLQMNSLRAEDSAVYFCARGSTYINIWGQGTLVKVSSEPKSSDKTHTCPPCPAPELLGGPSVFLFPPKPKDTLMISRTPEVTCVVVDVSHEDPEVKFNWYVDGVEVHNAKTKPREEQYNSTYRVVSVLTVLHQDWLNGKEYKCKVSNKALPAPIEKTISKAKGQPREPQVYTLPPCREEMTKNQVSLSCAVKGFYPSDIAVEWESNGQPENNYKTTPPVLDSDGSFFLVSKLTVDKSRWQQGNVFSCSVMHEALHNHYTQKSLSLSPGKGGGGSGGGGSDIQMTQSPSSLSASVGDRVTITCQSSESVYSNNQLSWYQQKPGQPPKLLIYDASDLASGVPSRFSGSGSGTDFTLTISSLQPEDFATYYCAGGFSSSSDTAFGCGTKLTVLGGGGGSGGGGSGGGGSGGGGSEVQLVESGGGLVQPGGSLRLSCAASGFSLSSNAMGWVRQAPGKCLEYIGIISVGGFTYYASWAKGRFTISRDNSKNTVYLQMNSLRAEDSATYFCARDRHGGDSSGAFYLWGQGTLVKVSS
heavy: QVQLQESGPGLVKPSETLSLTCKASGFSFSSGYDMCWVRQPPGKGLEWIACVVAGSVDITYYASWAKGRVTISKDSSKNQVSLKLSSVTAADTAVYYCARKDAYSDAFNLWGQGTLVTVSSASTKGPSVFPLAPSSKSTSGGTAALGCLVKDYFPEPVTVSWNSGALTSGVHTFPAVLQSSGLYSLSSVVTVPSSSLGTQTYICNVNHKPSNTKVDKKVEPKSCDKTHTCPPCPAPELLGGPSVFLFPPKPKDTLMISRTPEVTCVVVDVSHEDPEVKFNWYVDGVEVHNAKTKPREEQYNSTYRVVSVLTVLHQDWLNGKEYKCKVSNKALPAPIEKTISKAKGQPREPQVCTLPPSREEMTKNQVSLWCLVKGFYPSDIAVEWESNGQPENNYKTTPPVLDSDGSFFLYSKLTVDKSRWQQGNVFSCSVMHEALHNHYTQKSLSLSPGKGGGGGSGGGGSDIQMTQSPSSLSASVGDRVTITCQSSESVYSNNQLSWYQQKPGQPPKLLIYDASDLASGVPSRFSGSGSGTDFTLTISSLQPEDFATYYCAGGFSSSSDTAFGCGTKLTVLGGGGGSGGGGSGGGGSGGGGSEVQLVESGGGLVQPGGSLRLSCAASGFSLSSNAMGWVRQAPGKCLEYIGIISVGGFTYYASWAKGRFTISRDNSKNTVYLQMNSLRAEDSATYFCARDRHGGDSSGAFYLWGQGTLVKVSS
light: DIQMTQSPSSLSASVGDRVTITCQASQSINDYLAWYQQKPGKAPKLLIYKGGTLASGVPSRFSGSGSGTDFTLTISSLQPEDFATYYCQQGYIITDIDNVFGQGTKVEIKRTVAAPSVFIFPPSDEQLKSGTASVVCLLNNFYPREAKVQWKVDNALQSGNSQESVTEQDSKDSTYSLSSTLTLSKADYEKHKVYACEVTHQGLSSPVTKSFNRGEC
notes: anti-PDL1 x CD47 x (hSA dummy domain); also called PRO5055 with dummy domain for LILRB2-BD
B4: PRO4687 (antibody, human IgG1, kappa)
chain: DVQMTQSPSSLSASVGDRVTITCQASQSISSWVSWYQQKPGKPPKLLIYRGGYLESGVPSRFSASGSGTDFTLTISSLQPEDFATYYCQSTDSSTYGGAFGCGTKVTVLGGGGGSGGGGSGGGGSGGGGSQQVVESGGGLVQPGGSLRLSCAVSGIDLNSYAMTWVRQAPGKCLEWIGYIGSASSTYYASWASGRFTISKDNSKNTVYLQMNSLRAEDSAVYFCARGSTYINIWGQGTLVKVSSEPKSSDKTHTCPPCPAPELLGGPSVFLFPPKPKDTLMISRTPEVTCVVVDVSHEDPEVKFNWYVDGVEVHNAKTKPREEQYNSTYRVVSVLTVLHQDWLNGKEYKCKVSNKALPAPIEKTISKAKGQPREPQVYTLPPCREEMTKNQVSLSCAVKGFYPSDIAVEWESNGQPENNYKTTPPVLDSDGSFFLVSKLTVDKSRWQQGNVFSCSVMHEALHNHYTQKSLSLSPGKGGGGSGGGGSDVQMTQSPSSLSASVGDRVTITCQASQSIGSNLAWYQQKPGKPPKLLIYKGGTLESGVPSRFSGSGSGTDFTLTISSLQPEDFATYYCQSTAGSSRSGNYGYVFGCGTKVTVLGGGGGSGGGGSGGGGSGGGGSQQLVESGGGLVQPGGSLRLSCAASGFSFTNNYYMCWVRQAPGKCLEWIACMLVGAWGNTYYASWANGRFTISKDNSKNTVYLQMNSLRAEDSAVYFCARARDYTWTLGGDPETSGFNLWGQGTLVKVSS
heavy: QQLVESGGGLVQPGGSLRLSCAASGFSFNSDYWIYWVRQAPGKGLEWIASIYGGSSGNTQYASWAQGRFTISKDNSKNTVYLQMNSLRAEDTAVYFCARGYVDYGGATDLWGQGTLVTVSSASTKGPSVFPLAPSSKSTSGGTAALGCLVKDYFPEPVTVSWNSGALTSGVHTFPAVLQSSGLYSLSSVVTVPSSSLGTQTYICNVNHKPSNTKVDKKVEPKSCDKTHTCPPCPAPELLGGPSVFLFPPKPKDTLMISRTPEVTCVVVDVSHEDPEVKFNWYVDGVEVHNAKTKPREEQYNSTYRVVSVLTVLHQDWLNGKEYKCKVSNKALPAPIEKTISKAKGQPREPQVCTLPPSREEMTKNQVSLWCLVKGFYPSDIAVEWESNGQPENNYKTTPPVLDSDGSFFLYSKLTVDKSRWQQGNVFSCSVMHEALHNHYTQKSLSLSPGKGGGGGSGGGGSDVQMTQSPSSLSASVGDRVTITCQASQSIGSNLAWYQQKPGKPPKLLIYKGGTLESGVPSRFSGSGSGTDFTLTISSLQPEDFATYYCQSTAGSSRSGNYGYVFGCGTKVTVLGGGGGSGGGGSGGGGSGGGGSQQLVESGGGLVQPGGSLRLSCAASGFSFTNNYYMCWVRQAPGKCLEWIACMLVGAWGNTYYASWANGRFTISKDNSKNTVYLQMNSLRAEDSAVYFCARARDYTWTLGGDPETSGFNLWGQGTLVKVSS
light: DIQMTQSPSSLSASVGDRVTITCQASQSIGTYLAWYQQKPGKPPKLLIYRGGILASGVPSRFSGSGSGTDFTLTISSLQPEDFATYYCQSNFYSDSTTIGPNAFGQGTKVEIKRTVAAPSVFIFPPSDEQLKSGTASVVCLLNNFYPREAKVQWKVDNALQSGNSQESVTEQDSKDSTYSLSSTLTLSKADYEKHKVYACEVTHQGLSSPVTKSFNRGEC
notes: trispecific anti-PDL1 x CD47 x LILRB2; PDL1-BD (37-20-B03-sc18) as Fab
B5: PRO2230 (scFv)
scFv: DIQMTQSPASLSASVGDRVTITCQASQSIGTYLAWYQQKPGKPPKLLIYRAFILASGVPSRFSGSGSGTDFTLTISSLQPEDFATYYCQSNFYSDSTTIGPNAFGTGTKVTVLGGGGGSGGGGSGGGGSGGGGSEVQLVESGGGLVQPGGSLRLSCAASGFSFNSDYWIYWVRQAPGKGLEWIASIYGGSSGNTQYASWAQGRFTISRDNSKNTVYLQMNSLRAEDTAVYFCARGYVDYGGATDLWGQGTLVTVSS
notes: anti-PDL1 scFv; also called 37-20-B03-sc09.1
B6: PRO4688 (antibody, human IgG1, kappa)
chain: DVQMTQSPSSLSASVGDRVTITCQASQSISSWVSWYQQKPGKPPKLLIYRGGYLESGVPSRFSASGSGTDFTLTISSLQPEDFATYYCQSTDSSTYGGAFGCGTKVTVLGGGGGSGGGGSGGGGSGGGGSQQVVESGGGLVQPGGSLRLSCAVSGIDLNSYAMTWVRQAPGKCLEWIGYIGSASSTYYASWASGRFTISKDNSKNTVYLQMNSLRAEDSAVYFCARGSTYINIWGQGTLVKVSSEPKSSDKTHTCPPCPAPELLGGPSVFLFPPKPKDTLMISRTPEVTCVVVDVSHEDPEVKFNWYVDGVEVHNAKTKPREEQYNSTYRVVSVLTVLHQDWLNGKEYKCKVSNKALPAPIEKTISKAKGQPREPQVYTLPPCREEMTKNQVSLSCAVKGFYPSDIAVEWESNGQPENNYKTTPPVLDSDGSFFLVSKLTVDKSRWQQGNVFSCSVMHEALHNHYTQKSLSLSPGKGGGGSGGGGSDIQMTQSPSSLSASVGDRVTITCQSSESVYSNNQLSWYQQKPGQPPKLLIYDASDLASGVPSRFSGSGSGTDFTLTISSLQPEDFATYYCAGGFSSSSDTAFGCGTKLTVLGGGGGSGGGGSGGGGSGGGGSEVQLVESGGGLVQPGGSLRLSCAASGFSLSSNAMGWVRQAPGKCLEYIGIISVGGFTYYASWAKGRFTISRDNSKNTVYLQMNSLRAEDSATYFCARDRHGGDSSGAFYLWGQGTLVKVSS
heavy: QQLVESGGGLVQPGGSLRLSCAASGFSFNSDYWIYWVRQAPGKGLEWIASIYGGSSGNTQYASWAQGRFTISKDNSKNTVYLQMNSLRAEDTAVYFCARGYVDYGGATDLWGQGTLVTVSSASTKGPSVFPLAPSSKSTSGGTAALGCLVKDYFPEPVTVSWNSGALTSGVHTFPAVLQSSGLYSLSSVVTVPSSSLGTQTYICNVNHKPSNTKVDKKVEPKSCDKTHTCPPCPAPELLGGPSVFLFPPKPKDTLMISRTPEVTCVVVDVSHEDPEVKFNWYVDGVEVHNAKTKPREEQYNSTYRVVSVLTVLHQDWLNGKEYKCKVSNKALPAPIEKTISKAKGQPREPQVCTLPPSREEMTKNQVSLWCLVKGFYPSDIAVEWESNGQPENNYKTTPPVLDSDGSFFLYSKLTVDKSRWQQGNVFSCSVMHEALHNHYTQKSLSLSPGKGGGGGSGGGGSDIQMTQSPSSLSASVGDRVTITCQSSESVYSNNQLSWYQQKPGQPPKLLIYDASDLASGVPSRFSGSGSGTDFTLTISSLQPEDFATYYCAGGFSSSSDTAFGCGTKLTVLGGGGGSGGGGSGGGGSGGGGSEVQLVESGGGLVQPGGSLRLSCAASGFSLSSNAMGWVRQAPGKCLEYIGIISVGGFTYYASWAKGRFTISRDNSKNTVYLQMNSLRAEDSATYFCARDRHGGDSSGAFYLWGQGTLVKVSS
light: DIQMTQSPSSLSASVGDRVTITCQASQSIGTYLAWYQQKPGKPPKLLIYRGGILASGVPSRFSGSGSGTDFTLTISSLQPEDFATYYCQSNFYSDSTTIGPNAFGQGTKVEIKRTVAAPSVFIFPPSDEQLKSGTASVVCLLNNFYPREAKVQWKVDNALQSGNSQESVTEQDSKDSTYSLSSTLTLSKADYEKHKVYACEVTHQGLSSPVTKSFNRGEC
B7: PRO3703 (scFv)
scFv: DVQMTQSPSSLSASVGDRVTITCQASQSISSWVSWYQQKPGKPPKLLIYRGGYLESGVPSRFSASGSGTDFTLTISSLQPEDFATYYCQSTDSSTYGGAFGCGTKVTVLGGGGGSGGGGSGGGGSGGGGSQQVVESGGGLVQPGGSLRLSCAVSGIDLNSYAMTWVRQAPGKCLEWIGYIGSASSTYYASWASGRFTISKDNSKNTVYLQMNSLRAEDSAVYFCARGSTYINIWGQGTLVKVSS
notes: anti-CD47 scFv; also called 70-26-B04-sc03

Experiments:
recombinant human PDL1 [1] = target: T1, recombinant human PDL1 (human, UniProt Q9NZQ7 19-238, limits assumed); experiment: SPR
T1 construct: SPR antigen; also called CD274; B7-H1

[2] = target: T2, recombinant cynomolgus PDL1 (cynomolgus monkey, UniProt G7PSE7 19-238); experiment: SPR
T2 construct: also called cynom; PDL1

[3] = target: T3, human PD-L1 on the cell surface (human, UniProt Q9NZQ7 19-290); experiment: cell-based or functional assay
[4] = target: T4, human CD47 on the cell surface (human, UniProt Q08722 19-323); experiment: cell-based or functional assay
[5] = target: T3, human PD-L1 on the cell surface; experiment: cell-based or functional assay; remark: listed apart in the source
[6] = target: T4, human CD47 on the cell surface; experiment: cell-based or functional assay; remark: listed apart in the source
recombinant human CD47 [7] = target: T5, recombinant human CD47 (human, UniProt Q08722 19-139, limits assumed); experiment: SPR, antigen immobilised, antibody as analyte
recombinant human PDL1 [8] = target: T1, recombinant human PDL1; experiment: SPR, antigen immobilised, antibody as analyte
[9] = target: T6, human LILRB2 on the cell surface (human, UniProt Q8N423 22-597); experiment: cell-based or functional assay
[10] = target: T6, human LILRB2 on the cell surface; experiment: cell-based or functional assay; remark: listed apart in the source
recombinant human LILRB2 = target: T7, recombinant human LILRB2 (human, UniProt Q8N423 22-460, limits assumed); experiment: SPR, antibody captured by anti-framework IgG, antigen as analyte (without avidity)
T7 construct: also called ILT4

recombinant human CD47 [11] = target: T5, recombinant human CD47; experiment: SPR, CD47 immobilised, scFv as analyte, 1:1 Langmuir

T7 sequence (Q8N423 22-460 limits assumed): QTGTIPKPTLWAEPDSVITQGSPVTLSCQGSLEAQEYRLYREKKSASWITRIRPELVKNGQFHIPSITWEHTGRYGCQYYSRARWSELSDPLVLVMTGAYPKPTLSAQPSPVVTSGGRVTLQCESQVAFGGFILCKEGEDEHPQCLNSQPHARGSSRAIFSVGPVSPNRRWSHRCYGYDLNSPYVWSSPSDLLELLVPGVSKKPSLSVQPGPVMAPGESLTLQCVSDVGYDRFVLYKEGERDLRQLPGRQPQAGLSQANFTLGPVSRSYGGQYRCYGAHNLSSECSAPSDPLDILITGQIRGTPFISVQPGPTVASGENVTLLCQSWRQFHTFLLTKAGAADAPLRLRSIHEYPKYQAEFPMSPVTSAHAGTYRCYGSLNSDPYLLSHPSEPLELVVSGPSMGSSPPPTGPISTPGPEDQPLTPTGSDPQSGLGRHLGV
T6 sequence (Q8N423 22-597): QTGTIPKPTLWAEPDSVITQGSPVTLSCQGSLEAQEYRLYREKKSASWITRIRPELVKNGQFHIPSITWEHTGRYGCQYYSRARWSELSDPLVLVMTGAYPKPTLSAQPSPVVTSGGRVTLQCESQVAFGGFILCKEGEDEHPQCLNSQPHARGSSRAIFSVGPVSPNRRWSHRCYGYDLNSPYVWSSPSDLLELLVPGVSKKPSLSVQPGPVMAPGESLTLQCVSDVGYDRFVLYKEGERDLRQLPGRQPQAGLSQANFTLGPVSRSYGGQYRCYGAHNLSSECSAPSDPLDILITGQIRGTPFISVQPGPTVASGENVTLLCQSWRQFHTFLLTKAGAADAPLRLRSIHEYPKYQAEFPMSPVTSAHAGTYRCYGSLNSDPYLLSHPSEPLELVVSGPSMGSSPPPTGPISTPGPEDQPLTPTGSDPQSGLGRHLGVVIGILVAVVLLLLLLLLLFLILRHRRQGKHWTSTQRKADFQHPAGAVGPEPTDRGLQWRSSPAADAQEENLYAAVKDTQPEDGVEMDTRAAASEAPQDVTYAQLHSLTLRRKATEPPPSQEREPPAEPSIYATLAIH
T2 sequence (G7PSE7 entry or part of it): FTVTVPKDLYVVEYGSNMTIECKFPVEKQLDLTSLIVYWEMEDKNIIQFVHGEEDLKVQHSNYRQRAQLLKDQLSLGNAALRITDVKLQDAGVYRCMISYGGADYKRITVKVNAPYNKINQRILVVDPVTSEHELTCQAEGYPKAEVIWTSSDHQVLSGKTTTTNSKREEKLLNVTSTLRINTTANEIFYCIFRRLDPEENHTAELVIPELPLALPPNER

Binder	Kd (recombinant human PDL1 [1])	koff (recombinant human PDL1 [1])	kon (recombinant human PDL1 [1])	Kd [2]	koff [2]	kon [2]	PDL1/PD-1 EC50 [nM], NFAT reporter gene assay [3]	PDL1/PD-1 Max. inhibition (rel. to avelumab) [%] [3]	PD-L1 driven EC50 [nM], phagocytosis of H292 cells [5]	CD47 driven EC50 [nM], phagocytosis of H292 cells [6]	further results
B1	0.0041 nM	3.9e-05 s⁻¹	6e+06 M⁻¹ s⁻¹	0.0034 nM	2.9e-05 s⁻¹	5.9e+06 M⁻¹ s⁻¹	1.36 nM	94.6%	–	–	–
B2	0.036 nM	0.00014 s⁻¹	4e+06 M⁻¹ s⁻¹	0.032 nM	0.00014 s⁻¹	4.6e+06 M⁻¹ s⁻¹	1.81 nM	106%	–	–	–
B3	–	–	–	–	–	–	–	–	0.13 nM	54.3 nM	CD47 driven EC50 [nM], phagocytosis of A375 cells [4]: 76.9 nM; Kd (recombinant human CD47 [7]): 56.6 nM; koff (recombinant human CD47 [7]): 0.0249 s⁻¹; kon (recombinant human CD47 [7]): 439000 M⁻¹ s⁻¹; Kd (recombinant human PDL1 [8]): 0.0105 nM; koff (recombinant human PDL1 [8]): 2.13e-05 s⁻¹; kon (recombinant human PDL1 [8]): 2.02e+06 M⁻¹ s⁻¹
B4	–	–	–	–	–	–	–	–	0.043 nM	8.62 nM	CD86 EC50 [nM], re-polarization of M2 macrophages [9]: 0.078 nM; CD163 EC50 [nM], re-polarization of M2 macrophages [9]: 0.07 nM; CD206 EC50 [nM], re-polarization of M2 macrophages [9]: 0.124 nM; IL-1β EC50 [nM], LPS-driven cytokine secretion [10]: 0.205 nM; IL-6 EC50 [nM], LPS-driven cytokine secretion [10]: 0.097 nM; TNF-α EC50 [nM], LPS-driven cytokine secretion [10]: 0.175 nM; Kd (recombinant human CD47 [7]): 25.2 nM; koff (recombinant human CD47 [7]): 0.0204 s⁻¹; kon (recombinant human CD47 [7]): 811000 M⁻¹ s⁻¹; Kd (recombinant human PDL1 [8]): 0.0885 nM; koff (recombinant human PDL1 [8]): 0.000116 s⁻¹; kon (recombinant human PDL1 [8]): 1.31e+06 M⁻¹ s⁻¹; Kd (recombinant human LILRB2): 0.36 nM; koff (recombinant human LILRB2): 9.3e-05 s⁻¹; kon (recombinant human LILRB2): 260000 M⁻¹ s⁻¹
B5	0.015 nM	9.3e-05 s⁻¹	6.3e+06 M⁻¹ s⁻¹	0.012 nM	8.4e-05 s⁻¹	7e+06 M⁻¹ s⁻¹	0.93 nM	91.8%	–	–	–
B6	–	–	–	–	–	–	–	–	0.08 nM	13.5 nM	–
B7	–	–	–	–	–	–	–	–	–	–	Kd (recombinant human CD47 [11]): 11.9 nM; koff (recombinant human CD47 [11]): 0.029 s⁻¹; kon (recombinant human CD47 [11]): 2.44e+06 M⁻¹ s⁻¹
